One molecule from article PMC4357707 (Nucleic Acids Research, 2015) can be followed below.

This data set addresses T1, HEN1 wt (Arabidopsis thaliana, UniProt Q9C5Q8 1-942).
T1 sequence: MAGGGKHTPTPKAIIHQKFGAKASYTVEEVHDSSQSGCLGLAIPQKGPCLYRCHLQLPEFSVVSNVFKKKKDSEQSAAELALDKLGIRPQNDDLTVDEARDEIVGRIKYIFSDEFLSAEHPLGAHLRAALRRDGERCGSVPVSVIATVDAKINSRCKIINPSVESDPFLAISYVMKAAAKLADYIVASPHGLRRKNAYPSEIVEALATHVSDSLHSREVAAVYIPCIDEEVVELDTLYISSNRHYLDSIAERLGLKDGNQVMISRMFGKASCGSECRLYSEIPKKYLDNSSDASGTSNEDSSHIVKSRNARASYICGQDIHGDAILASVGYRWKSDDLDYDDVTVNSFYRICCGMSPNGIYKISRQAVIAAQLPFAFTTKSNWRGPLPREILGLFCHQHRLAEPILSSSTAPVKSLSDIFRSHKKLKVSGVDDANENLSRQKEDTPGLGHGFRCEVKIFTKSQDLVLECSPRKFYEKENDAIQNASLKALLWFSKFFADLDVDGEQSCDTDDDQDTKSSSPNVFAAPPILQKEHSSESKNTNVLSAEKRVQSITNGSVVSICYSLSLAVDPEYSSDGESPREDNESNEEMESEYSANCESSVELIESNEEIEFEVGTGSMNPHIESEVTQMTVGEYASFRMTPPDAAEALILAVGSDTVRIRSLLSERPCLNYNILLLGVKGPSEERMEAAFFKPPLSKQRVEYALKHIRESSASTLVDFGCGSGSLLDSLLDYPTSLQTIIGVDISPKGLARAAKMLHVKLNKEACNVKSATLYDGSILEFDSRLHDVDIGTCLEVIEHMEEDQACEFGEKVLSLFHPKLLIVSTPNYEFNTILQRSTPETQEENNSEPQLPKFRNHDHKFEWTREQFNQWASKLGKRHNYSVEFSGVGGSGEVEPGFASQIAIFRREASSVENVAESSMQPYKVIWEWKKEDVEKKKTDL
The experiment in a line: EMSA. (A gel shift assay detects complexes by their altered migration in electrophoresis.)

Broadly, the Kd is a measure of binding affinity in units of concentration. Read a low Kd as higher affinity.

B1: miR173/miR173* (dsRNA)
RNA 1: UUCGCUUGCAGAGAGAAAUCAC
RNA 2: GAUUCUCUGUGUAAGCGAAAG
In turn, B1 gave a Kd of 0.32 ± 0.03 nM.
